The values below come from patent US6884597B1, “Method for detecting acetyltransferase and deacetylase activities and method for screening inhibitors or enhancers of these enzymes” (Medical & Biological Laboratories, Co., Ltd., priority 1998, dated 2005).

This data set concerns sub p53-1 and sub p53-2 peptides. Nature of the data set: ELISA system for measuring the deacetylase activity (liquid and solid phase). In kind it is biochemical, human. Particulars: 0 to 10 μg/ml; liquid and solid phases; depending on the concentration; FIGS. 11 and 12. How it is done: Two peptide substrates “Sub Ac p53-1” (SEQ ID NO: 17/Bio-STSRHKK(Ac)LMFKTE and “Sub Ac p53-2” (SEQ ID NO: 18/Bio-SHLKSKK (Ac) GQSTSR) in which an acetyl group was introduced into the ε amino group on the 373rd and 382nd lysine residues of human p53, were prepared by a peptide synthesizer. An amino acid in a peptide is shown by the one-letter code and “Bio” at the amino ends means biotin. K(Ac) indicates an acetylated lysine residue. Ninety percent or higher purity of the synthesized peptides was confirmed by HPLC. “Sub Ac p53-1” and “Sub Ac p53-2” were composed of amino acid residues 376 to 388 and 367 to 379, of human p53, respectively.
Two peptides substrate were dissolved in PBS to 10 μg/ml. 50 μl of each peptide solution were added to each well on a microtiter plate for ELISA, and sensitized at 4° C. overnight. […]
The synthesized peptide substrates and the recombinant deacetylase were reacted in the liquid phase, and the enzyme activity was measured by ELISA system using a microtiter plate. […] 100 μl of 1.5 N phosphate solution were added thereto to terminate the coloring reaction, and absorbance at 450 nm was measured using a microtiter plate reader. • Solid Phase Analysis System (Refer to FIG. 4) […]
A general note: An ELISA detects its analyte on a solid surface through an enzyme-linked reagent.

Consider “recombinant HDAC1: recombinant deacetylase HDAC1/RPD3 (full length) purified from E. coli”, for which the “deacetylase activities in sub p53-1 and sub p53-2 peptides” value is given as “detected”.
